Assays:
[1] = target: membrane-bound tissue factor (TF) on cells (human, UniProt P13726 33-295); test: cell-based or functional assay
[2] = target: T1, TFECDHis (extracellular domain of tissue factor, amino acid 1-251, with C-terminal His tag) (human, UniProt P13726 33-251); test: ELISA, coated TFECDHis
T1 construct: range 1-251; The stated range 1-251 starts at residue 1 of the precursor; also called recombinant extracellular domain of TF
Method: (§1) Binding of the anti-TF ADCs to TF was measured by ELISA (coated recombinant extracellular domain of TF) and compared with binding of unconjugated anti-TF HuMabs. […] ELISA plates were washed three times with PBS containing 0.05% Tween-20 (PBST), blocked with 200 µL/well PBST at RT for 1 h while shaking (300 rpm), washed three times with PBST and emptied. Subsequently, 100 μl anti-TF ADCs or unconjugated anti-TF HuMabs were added in serial dilutions in PBST and incubated while shaking at RT for 90 min. ELISA plates were washed three times with PBST and emptied. […] Plates were washed three times with PBST, emptied and incubated with 100 μL ABTS solution (50 ml ABTS buffer [Roche] and one ABTS tablet [50 mg; Roche]). After incubation in the dark at RT for 30 min, the reaction was stopped by incubation with 100 μL per well oxalic acid (2% [w/v]; Riedel de Haen) in the dark, for 10 min. Plates were measured at OD 405 nm in an ELISA reader (Biotek Instruments, EL808 Absorbance Microplate Reader).
(§2) Binding curves were analyzed by non-linear regression (sigmoidal dose-response with variable slope) using GraphPad Prism 5 software (GraphPad Software, San Diego, CA, USA).

[3] = target: T1, TFECDHis (extracellular domain of …); test: ELISA, coated TFECDHis; upper end of the group's range, tied to 011-vcMMAE by Table 7 (469)
Method: as §1, §2

B1: HuMab-TF-011-vcMMAE (antibody, IgG1, V domains shown)
VH: EVQLLESGGGLVQPGGSLRLSCAASGFTFSNYAMSWVRQAPGKGLEWVSSISGSGDYTYYTDSVKGRFTISRDNSKNTLYLQMNSLRAEDTAVYYCARSPWGYYLDSWGQGTLVTVSS
VL: DIQMTQSPPSLSASAGDRVTITCRASQGISSRLAWYQQKPEKAPKSLIYAASSLQSGVPSRFSGSGSGTDFTLTISSLQPEDFATYYCQQYNSYPYTFGQGTKLEIK
modifications: vcMMAE drug-linker alkylated to cysteines of the reduced antibody (positions not given)
notes: DAR 3.9 by RP-HPLC, 3.9 by HIC
[1]
  % kill at 10 µg/mL, A431 cells, ADC killing assay: 93%
  % kill at 10 µg/mL, HPAF-II cells, ADC killing assay: 71%
  % kill at 10 µg/mL, NCI-H441 cells, ADC killing assay: 60%
  IC50 of cell killing, A431 cells, ADC killing assay: 10 ng/mL
  IC50 of cell killing, HPAF-II cells, ADC killing assay: 3 ng/mL
  IC50 of cell killing, NCI-H441 cells, ADC killing assay: 10 ng/mL
[2]
  EC50: 469 ng/mL
[3]
  EC50: 470 ng/mL

— patent US20240294661A1 (Genmab, published 2024)
